Reference: publication PMC3991680, “In Vitro Calcite Crystal Morphology Is Modulated by Otoconial Proteins Otolin-1 and Otoconin-90” (PLoS ONE, 2014)

What was measured:
[1] = molecular target: the molecule itself; test: atomic force microscopy; 150 nM protein in 500 mM KCl deposited on freshly cleaved mica, incubated 48 hrs, in situ imaging in tapping mode
[2] = molecular target: the molecule itself; test: rotary shadowing electron microscopy; rmOtolin-1 adsorbed on mica, rapid freezing, freeze-drying, rotary shadowing

Protein | binding result [1] | binding result [2]
recombinant histidine tagged human Otolin-1 (natural protein, UniProt A6NHN0 24-477, looked up, Otolin-1, human; OmicsLink Expression-Ready Clone (pReceiver-M77 plasmid, GeneCopoeia) coding for human Otolin-1 with a C-terminal His tag; secreted protein; also called rhOtolin-1; human Otolin-1-His; source: HEK293-F (Freestyle Max 293), transfected; secreted into medium, purified (HisTrap); not shown: His tag, C-terminal, kept) KTTPHTKFTKKSEEREMPKGLKPSSGPPPEEEETLFTEMAEMAEPITKPSALDSVFGTATLSPFENFTLDPADFFLNCCDCCSPVPGQKGEPGETGQPGPKGEAGNLGIPGPPGVVGPQGPRGYKGEKGLKGERGDQGVPGYPGKPGAQGEPGPKGDKGNIGLGGVKGQKGSKGDTCGNCTKGEKGDQGAMGSPGLHGGPGAKGEKGEMGEKGEMGDKGCCGDSGERGGKGQKGEGGMKGEKGSKGDSGMEGKSGRNGLPGAKGDPGIKGEKGELGPPGLLGPTGPKGDIGNKGVRGPTGKKGSRGFKGSKGELARVPRSAFSAGLSKPFPPPNIPIKFEKILYNDQGNYSPVTGKFNCSIPGTYVFSYHITVRGRPARISLVAQNKKQFKSRETLYGQEIDQASLLVILKLSAGDQVWLEVSKDWNGVYVSAEDDSIFTGFLLYPEETSGISP | binds | –
recombinant mouse Otolin-1-Flag (natural protein, UniProt Q4ZJM7 24-482, looked up, Otolin-1, mouse; cDNA amplified by RT-PCR from E16.5 mouse otocysts with primers from the start ATG to the last codon before the stop (FLAG added before the stop codon); secreted protein; The introduction calls rmOtolin-1 histidine tagged, the methods and results Flag tagged; also called rmOtolin-1; Flag tagged recombinant mouse Otolin-1; source: HEK293-T, stably transfected; not shown: FLAG, …) KTTPYTKFTKKSEGKEMLKGLKPSSGFFLDGEETVHTETAAMAEPTTGSPALAMAESTAGPSASATTRLLPFESFSLDTTGFVLNCCHCCSFVTGQKGEPGKMGKQGPKGETGDTGSPGHPGTTGPQGPKGQKGEKGLKGDRGDQGAGGIPGYPGKPGEQGALGPKGDKGTIGPAGTKGQKGSKGELCGNGTKGEKGDPGASGAHGFIGEPGAKGEKGGVGEKGYRGDLGERGEKGQKGEKGMEGEKGSRGDVGSEGKRGSDGLPGLRGDSGPKGEKGEIGSPGFTGPAGPKGELGSKGVRGPTGKKGSRGVKGSKGEATQVPQSAFSALLSKPFPPPNVPIKFDKILSNDQGDYSPVTGKFNCSVPGTYIFSYHVTVRGRPARISLVARNRKQFKSRETLYGQQVDQASLLLILKLSAGDQVWLEVSKDWNGLYVGPEDDSIFSGFLLYPEETFSKSP | – | binds
